Assays:
YFP-FAK (mouse) = YFP-FAK (mouse) (UniProt P34152); assay: FRET or BRET
[1] = biological target: Focal adhesion kinase (FAK), endogenous in rat aortic smooth muscle cells (rat (endogenous in RASMs)) (UniProt O35346); assay: co-IP
UniProt O35346, sequence (O35346 whole entry): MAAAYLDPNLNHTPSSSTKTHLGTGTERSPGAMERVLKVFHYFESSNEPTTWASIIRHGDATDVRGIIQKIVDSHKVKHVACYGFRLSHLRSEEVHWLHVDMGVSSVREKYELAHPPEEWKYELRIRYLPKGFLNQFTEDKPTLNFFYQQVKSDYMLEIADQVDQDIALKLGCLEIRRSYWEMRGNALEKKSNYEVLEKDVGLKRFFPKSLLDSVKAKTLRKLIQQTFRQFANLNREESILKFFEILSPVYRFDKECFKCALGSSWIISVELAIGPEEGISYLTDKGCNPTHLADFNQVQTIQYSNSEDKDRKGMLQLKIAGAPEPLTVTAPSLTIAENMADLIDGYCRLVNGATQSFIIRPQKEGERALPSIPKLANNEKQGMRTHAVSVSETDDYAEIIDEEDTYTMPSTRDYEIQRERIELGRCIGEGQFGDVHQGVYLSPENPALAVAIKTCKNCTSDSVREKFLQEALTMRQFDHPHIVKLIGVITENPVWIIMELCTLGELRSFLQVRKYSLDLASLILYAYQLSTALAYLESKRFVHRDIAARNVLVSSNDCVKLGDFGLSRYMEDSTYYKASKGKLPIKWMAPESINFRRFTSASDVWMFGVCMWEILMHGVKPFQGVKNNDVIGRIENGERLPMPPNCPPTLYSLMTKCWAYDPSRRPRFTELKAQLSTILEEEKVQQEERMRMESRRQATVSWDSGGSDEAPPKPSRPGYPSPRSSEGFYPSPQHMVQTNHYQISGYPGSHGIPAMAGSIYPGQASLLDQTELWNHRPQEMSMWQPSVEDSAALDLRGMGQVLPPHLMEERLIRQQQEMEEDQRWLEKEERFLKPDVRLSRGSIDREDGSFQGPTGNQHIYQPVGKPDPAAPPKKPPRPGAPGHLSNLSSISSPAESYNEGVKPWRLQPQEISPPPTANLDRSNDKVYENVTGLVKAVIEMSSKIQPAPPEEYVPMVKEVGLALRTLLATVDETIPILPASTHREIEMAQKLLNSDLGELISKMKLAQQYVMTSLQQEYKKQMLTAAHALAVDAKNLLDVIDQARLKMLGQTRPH

UniProt P34152, sequence (P34152 whole entry): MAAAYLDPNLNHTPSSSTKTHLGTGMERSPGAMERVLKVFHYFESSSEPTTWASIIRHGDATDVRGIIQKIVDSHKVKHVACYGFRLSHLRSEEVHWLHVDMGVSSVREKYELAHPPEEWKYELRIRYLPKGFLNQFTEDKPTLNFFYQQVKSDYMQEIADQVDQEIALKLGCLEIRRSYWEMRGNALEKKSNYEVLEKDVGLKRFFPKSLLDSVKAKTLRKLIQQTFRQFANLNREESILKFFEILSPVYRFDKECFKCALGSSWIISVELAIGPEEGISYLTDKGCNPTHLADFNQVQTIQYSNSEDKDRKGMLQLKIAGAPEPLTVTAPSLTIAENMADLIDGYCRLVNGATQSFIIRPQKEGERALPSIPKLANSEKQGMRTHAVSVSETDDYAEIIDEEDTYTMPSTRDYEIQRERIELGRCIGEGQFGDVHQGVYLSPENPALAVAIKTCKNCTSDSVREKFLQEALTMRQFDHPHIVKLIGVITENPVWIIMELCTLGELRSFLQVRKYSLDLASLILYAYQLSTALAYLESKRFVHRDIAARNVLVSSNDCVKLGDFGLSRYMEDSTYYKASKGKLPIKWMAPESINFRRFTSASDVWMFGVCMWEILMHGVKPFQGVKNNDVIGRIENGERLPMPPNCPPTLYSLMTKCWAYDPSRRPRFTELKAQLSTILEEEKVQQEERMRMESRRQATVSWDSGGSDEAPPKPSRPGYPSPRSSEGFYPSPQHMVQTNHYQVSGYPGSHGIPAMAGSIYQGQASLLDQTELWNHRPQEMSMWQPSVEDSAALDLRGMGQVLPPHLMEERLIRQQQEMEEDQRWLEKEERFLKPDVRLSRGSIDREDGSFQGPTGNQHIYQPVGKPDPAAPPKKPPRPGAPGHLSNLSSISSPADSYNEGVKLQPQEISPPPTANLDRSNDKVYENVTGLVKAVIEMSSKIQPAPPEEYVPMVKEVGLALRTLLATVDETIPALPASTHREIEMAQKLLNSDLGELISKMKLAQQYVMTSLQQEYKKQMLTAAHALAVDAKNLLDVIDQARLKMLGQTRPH

## cyan fluorescent protein (CFP) S217A-FRNK (natural protein)
YFP-FAK (mouse)
  FRET efficiency: 53%
[1]
  fold co-immunoprecipitation against WT-FRNK: 5 fold

Reference: PMC6800154
